Reference: the supplement of paper PMC12042874
± gives the uncertainty stated by the source.

Assay: amyloid nucleation score (Sup35N fusion, yeast selection) (log enrichment); library NNK1; higher = more nucleation; inactive = no reads after selection
Procedure, shortened: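 On medium lacking adenine and uracil, psi-negative yeast expressing peptides of 20 random codons fused to Sup35N were grown 7 days at 30°C after a 24-hour induction with 100 μM copper sulfate. Illumina sequencing of input and output plasmid inserts gave the reads, and sequences under 100 input reads were excluded. The nucleation score is the DiMSum log enrichment of output over input reads, centred on the mode score of non-aggregating sequences.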

Row | Substance | amyloid nucleation score
1 | SFLLKKKVPWPFFCTCMLVG | -0.575 ± 1.5
2 | IYRSVANSMKVSEYQIPLDS | -0.18 ± 0.54
3 | MNNCKGTI | -0.679 ± 0.79
4 | FCNLYVEWFLGDNVKVTRYR | 3.58 ± 0.095
5 | FSYCEWRDKCCERWSFLDNQ | 1.11 ± 0.49
6 | NYFIVLSR | 2.09 ± 0.43
7 | IRSLKNPF | 0.275 ± 1.2
8 | KKSYCYPFPFFSYV | 0.423 ± 0.65
9 | FGHKPCLATQLTGPTKRCAA | 0.959 ± 1.1
10 | PLLEATNCDLHGLVRLLMRF | 0.651 ± 0.72
11 | EPARK | inactive
12 | IGPLYRFCMLNMRFGAGSLN | 0.428 ± 0.84
13 | NMLGSFPLTVLRKAWCCGSL | 1.04 ± 0.57
14 | MVFLGCSGLVCERCAGWLAR | 5.58 ± 0.11
15 | NWHGSLKPPYACEGALRVWR | 6.26 ± 0.08
16 | KLWVNNQS | 0.198 ± 0.57
17 | YFSYSLQKTAARRGVVMFTQ | -0.378 ± 1.4
18 | SLVPVYI | 0.167 ± 0.35
19 | LGVRRPQEISCHADHASRWL | -0.776 ± 1.3
20 | FFRIEATSVSLSPAYRLEDR | 2.59 ± 0.28
21 | NQYSFRGLS | inactive
22 | FSDVCGPSPLCW | 0.142 ± 0.44
23 | KGAIPFSSDCGGLSGLILYC | 0.301 ± 0.54
24 | QLVYCCLLILIYTYEC | 0.499 ± 0.42
25 | GLWLKLLVDLKHMKIEHPWH | 0.933 ± 0.72

Row | Substance | amyloid nucleation score
26 | WPIRVMMGYRLLGMDRNVFG | 0.129 ± 0.68
27 | RWSLGGICVYVGLNEFVLMI | 2.56 ± 0.22
28 | YCCSCASCGPGVNRSWGN | 1.57 ± 0.16
29 | WEWSTGFRCC | 0.566 ± 0.48
30 | FNSRAICGEIVNIPHQSPGD | 1.16 ± 0.67
31 | IPWPRTPSSSGMHAL | 4.81 ± 0.074
32 | SWNNNAFAGMIPSNVVCCTY | 1.97 ± 0.26
33 | SYAGYGTNK | -0.242 ± 0.62
34 | NRNKVR | -0.2 ± 1.1
35 | TGYLIYSSWC | 0.146 ± 0.4
36 | NGFCEVDIVLFRVEVVAACV | -0.965 ± 2.4
37 | DLSSESHVFLCVAL | -0.711 ± 2.1
38 | ILMHSIAVFTRGIGRIRLAS | 0.913 ± 0.68
39 | SVAHMVDISFVVHPVMSTGN | -1.1 ± 0.82
40 | RGFNVVHGGELRRMLMTEGD | 0.926 ± 0.43
41 | DSSLRDKYVTKNVFIFSMSG | 4.71 ± 0.063
42 | PLAAYCSVDYGQKIQIATVP | -0.541 ± 0.42
43 | VTTRLPIYRVKF | 0.228 ± 0.37
44 | FCEHNVISYNESLRM | 0.352 ± 0.53
45 | FCGAVVFNVVWCYWNKIAVL | 1.79 ± 0.12
46 | SAIMEVLRMDDTCLWSNWVM | 0.057 ± 0.37
47 | TTRHSNQSIM | 0.344 ± 0.4
48 | GHVVLFLLYDLSFYSNIFCA | 0.712 ± 0.19
49 | DCDRYNGLCHLCCIQWHL | 1.56 ± 0.33
50 | SFVRGFYVNFRFSKGILDMF | -0.082 ± 0.32

Row | Substance | amyloid nucleation score
51 | FFYRPYVFMCLFYMVSRAGS | 4.41 ± 0.078
52 | VLATGVCACTGVYTFMTWWV | -0.455 ± 0.47
53 | WMFIFRLTSTLYYHCC | inactive
54 | WDRASYIEYRSFIEWRRLPK | -0.006 ± 0.55
55 | NMFNDVGDWTFNKGSFTGTV | -0.482 ± 0.41
56 | SLMGALEIQRCSAFSSFLFR | 1.32 ± 0.41
57 | QISNRYPLVRPTLLFCGFPF | -0.224 ± 0.4
58 | EVHGFNRCGLKSIRVHKVYA | 0.839 ± 0.62
59 | VIFSGVTRFHSRTCLRFVMI | -0.09 ± 0.79
60 | NFCEVYGANIN | inactive
61 | SLIRSMTISDNLIMWAGWTY | -0.7 ± 0.38
62 | VAQLFHWADLYNTSYYVSCV | 3.38 ± 0.089
63 | VLKCFSLEVVTWDSACLAGL | 0.252 ± 1.1
64 | TNDTAPVWHTDLMTDWR | -0.079 ± 0.57
65 | DYYVVLDMQQVFEGGCRFFR | 0.498 ± 0.46
66 | TNFRRSCYVDGVC | inactive
67 | NLSLRLFVSLSLIMTVMRVP | -0.127 ± 0.4
68 | TESVRKWFKLRLWESWYNSN | 0.145 ± 0.51
69 | VSVMFYPFVFHWYGCLLTSA | 2.96 ± 0.12
70 | KVHTGTSTRLKLYMHSTLRT | 0.454 ± 0.25
71 | MYPTLRTRPTCIYVR | 1.19 ± 0.53
72 | SASGAWSGWPHRKVGYGSSL | 0.664 ± 0.36
73 | SVVRNEIYRYYKCSKTVSIW | -0.513 ± 0.33
74 | VTRDMCGYLVCFWQYAG | 7.728 ± 0.045
75 | ANAELVYNRLFRSTNPLGCV | inactive

Row | Substance | amyloid nucleation score
76 | LKRFMDTDYYFMMKCCTSN | 0.843 ± 0.55
77 | LMESVAVFPNSRLPILTEC | -0.011 ± 0.56
78 | NSCQNPSEGF | -0.376 ± 1.2
79 | VRLIRTPSDIGTYIIGCREG | -0.065 ± 0.38
80 | RFMCWVFTGCLGLSGNSSC | 1.95 ± 0.16
81 | ISTPIDDPKCLGSLVYFHQM | -0.693 ± 0.53
82 | SRYGWGTRSESRQLTSLSCT | -0.304 ± 1.3
83 | SLCGTS | -0.222 ± 0.46
84 | NGYQCYGILCAFVTWTVYFW | 1.26 ± 0.79
85 | KVCAVTM | 0.095 ± 0.3
86 | FLWIYLSNTVLG | -0.535 ± 0.33
87 | VPFSGSDNGGTYDCLDWNEG | -0.299 ± 0.63
88 | VRCNC | 0.261 ± 0.5
89 | SGRPLNNVWGVTWEIMRLSL | -0.839 ± 0.86
90 | NSMLNDCHDKLIIGFSEGWS | 0.091 ± 0.47
91 | CCADPMHYTFHSSNLVFPLM | 0.294 ± 0.37
92 | FHVHSVLISE | -0.166 ± 0.84
93 | KSTSRPCHWIYWMWMVYPRY | 0.445 ± 0.81
94 | GTYRRQKMELMYSSLGLFGC | -0.634 ± 0.56
95 | SCRLIDWVPSHSRYRTFCCE | -0.386 ± 0.37
96 | NVLWGCQPNFVWDAWLRTEH | 0.777 ± 0.73
97 | YLQIWRLSRRSILL | inactive
98 | IPNSRLLNI | 0.996 ± 0.57
99 | PRPQLPVKYLYSRLIGETCG | 3.25 ± 0.071
100 | QRERMRGFKFDRLFCIRVWW | -1.03 ± 0.44

Row | Substance | amyloid nucleation score
101 | LVFSRFLGSVLVNEPSEATR | 0.203 ± 1.5
102 | YLEVPMKFFEFFGFRPVAFV | -0.121 ± 0.54
103 | RVNLFSPYAWCIQIGSHHYG | 7.444 ± 0.047
104 | RLFSENMQEVMV | -0.698 ± 0.52
105 | GVGSSFSTSKAYWVGYECIT | -0.217 ± 0.41
106 | WGRNMKYVRTGVGLINDLVR | inactive
107 | KSAEIKEQCTTWFMYTMLGA | -0.785 ± 0.44
108 | LRVNGEKIKASLPFEGD | 0.197 ± 0.51
109 | NILDMCLKRYIFMLE | 1.44 ± 0.37
110 | AYEGKGITGHLIFSWKSKSL | 1.55 ± 0.13
111 | FTMFFPMGSVC | 0.292 ± 0.64
112 | GGCVGLCFRYSFPTCDSC | 1.65 ± 0.42
113 | GVDSFTDSIEYKVGRRVFRH | 1.21 ± 0.76
114 | NTNYGLIQFGILLCRFC | 6.814 ± 0.052
115 | ADWTSSLNLGEYYMFKFSPE | 1.02 ± 0.38
116 | AMQYYIHQLVVDLSGLM | 6.57 ± 0.077
117 | HSRRCYNESS | 1.7 ± 0.55
118 | LVWLY | 0.493 ± 0.68
119 | YSFRAIDTQLTQTLTWLLIR | -0.563 ± 0.53
120 | WPDISCPPCNGDRMTVKWHV | 0.836 ± 0.97
121 | FALIR | 0.81 ± 0.51
122 | MILRVVCHLNVCS | 6.921 ± 0.05
123 | CRASYGFHVQRDALDR | -0.438 ± 0.75
124 | GRGANLCYRTRTVLLVNNLS | -0.199 ± 1.2
125 | MHFIRALIEFH | 1.88 ± 0.2

Row | Substance | amyloid nucleation score
126 | WELVCISFLVRDTCVVI | 0.263 ± 0.47
127 | YVIMWGGLTLYLWGCRKWWE | -0.103 ± 0.43
128 | RCKGNGKNISCSPFQSREWY | 0.026 ± 0.33
129 | NLKVESPGNGSWICTLEWVW | 6.645 ± 0.054
130 | KSGVRYNRGRKYASTQ | -0.302 ± 0.39
131 | NNSSHGCRNVRNSQMSFVPQ | -0.165 ± 0.75
132 | MIYVGVDISV | 2.24 ± 0.28
133 | CVLSNRNFNYVAYTYKLQYP | 1.19 ± 0.32
134 | ISALGF | 1.98 ± 0.72
135 | ASMWSWRYHMEAINSTKAEA | -0.745 ± 2.4
136 | AESLWQFTWQVTKPHEEGSE | 4.35 ± 0.068
137 | AVELAKSPLWIPKLGYVMNQ | 0.233 ± 0.48
138 | LCGEGRFLQTWRSLSFP | -0.865 ± 0.39
139 | WVGLSFDDIKIYSASSN | 0.308 ± 0.52
140 | GGLICTGNFY | inactive
141 | TAFLGTSGG | 0.448 ± 0.42
142 | LSFIACPYIVRVYAFNPRTG | 6.16 ± 0.071
143 | MERYCN | -0.148 ± 0.23
144 | ITMNVRSSYGLSVIMIELGL | 1.02 ± 0.76
145 | IHVSFKDYLTVSTIMMWTIV | -0.077 ± 0.66
146 | CDIIYFACGDREV | inactive
147 | IRTPYIWLTCRGPYEVRRWD | -0.247 ± 0.69
148 | LVPSTFHTF | 0.149 ± 0.77
149 | MDVPFLRKN | 0.154 ± 0.66
150 | RVTVIIFTLSRGYIIMSRNR | -1.12 ± 1.1

Row | Substance | amyloid nucleation score
151 | IIEWFSWWARMIFDDFPYYE | inactive
152 | SLDCWLMGGRTANLVRRLGR | -0.39 ± 0.95
153 | HRIWRLLALNT | -0.583 ± 0.54
154 | GPRDFGDAWCYTSNNVKSCS | 0.216 ± 0.48
155 | FNVGLPLAGIISTKTD | -1.83 ± 2.7
156 | YSYMTYRALFVVTSCLSRWG | 1.11 ± 0.66
157 | SHREMPSPIGMVSSSFMRVT | 0.539 ± 0.9
158 | LNATGSLPYDIMECTKELWP | -0.343 ± 0.7
159 | WHRSIWR | 0.753 ± 0.56
160 | CISLFFVKCGRQAAHPQSRR | 8.295 ± 0.062
161 | VRLSFPKRLSISSAVCNRGS | 0.279 ± 0.62
162 | GFISIGP | -0.068 ± 0.29
163 | GCIWWPTDRPLLLSPAMSYS | 0.133 ± 0.37
164 | KVGHANVADFPIWRRNLFG | -0.544 ± 0.84
165 | LRLIV | 0.113 ± 0.89
166 | RIIYGCCAVRFARSMAKHPM | -0.716 ± 0.38
167 | IDSGRAKRLSHMIWISVRHG | -1.93 ± 2.7
168 | IVYTYRVNIVII | 7.528 ± 0.044
169 | YSLLY | -0.652 ± 0.66
170 | RRGSCLRFKV | 0.859 ± 0.97
171 | TDDATNVRKGAHS | 0.602 ± 0.6
172 | LLDMHYTLEWCTKCYTDKVQ | 0.121 ± 0.26
